Assay results published in US20030158389A1.
Read-outs that look alike come from different tables or passages of the source. One block for each substance: values may come before it.

What was measured:
[1] = molecular target: human C1q (Quidel, San Diego, Calif.) (human) (UniProt P02745); experiment: cell-based or functional assay
[2] = molecular target: human C1q (Quidel, San Diego, Calif.) (human) (UniProt P02745); experiment: C1q binding ELISA, antibody coated on plate, 2 µg/ml C1q
[3] = molecular target: CD20 antigen on WIL2-S cells (UniProt P11836); experiment: flow cytometry on WIL2-S cells expressing CD20
Chain of CD20 antigen on WIL2-S cells (P11836 whole entry): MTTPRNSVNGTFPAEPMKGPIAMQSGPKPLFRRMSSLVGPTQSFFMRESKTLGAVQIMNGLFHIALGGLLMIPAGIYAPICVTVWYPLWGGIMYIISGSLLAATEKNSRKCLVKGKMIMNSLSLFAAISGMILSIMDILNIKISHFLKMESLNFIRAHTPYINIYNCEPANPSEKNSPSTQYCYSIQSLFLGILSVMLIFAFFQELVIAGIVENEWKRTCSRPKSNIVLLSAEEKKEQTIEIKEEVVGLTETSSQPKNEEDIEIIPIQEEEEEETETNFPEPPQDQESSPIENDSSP

[4] = molecular target: human C1q (Quidel, San Diego, Calif.) (human) (UniProt P02745); experiment: C1q binding ELISA, antibody coated on plate, 2 µg/ml C1q; remark: listed apart in the source

Chain of human C1q (Quidel, San Diego, Calif.) (human) (P02745 23-245 limits assumed, chain 1 of 3): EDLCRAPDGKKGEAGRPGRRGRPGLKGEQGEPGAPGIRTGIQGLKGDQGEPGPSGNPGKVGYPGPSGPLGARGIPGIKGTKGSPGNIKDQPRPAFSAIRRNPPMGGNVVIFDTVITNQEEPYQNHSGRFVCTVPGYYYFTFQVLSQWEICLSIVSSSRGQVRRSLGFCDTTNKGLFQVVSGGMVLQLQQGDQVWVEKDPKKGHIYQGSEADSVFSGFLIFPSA
Chain of human C1q (Quidel, San Diego, Calif.) (human) (P02746 28-253 limits assumed, chain 2 of 3, further chain): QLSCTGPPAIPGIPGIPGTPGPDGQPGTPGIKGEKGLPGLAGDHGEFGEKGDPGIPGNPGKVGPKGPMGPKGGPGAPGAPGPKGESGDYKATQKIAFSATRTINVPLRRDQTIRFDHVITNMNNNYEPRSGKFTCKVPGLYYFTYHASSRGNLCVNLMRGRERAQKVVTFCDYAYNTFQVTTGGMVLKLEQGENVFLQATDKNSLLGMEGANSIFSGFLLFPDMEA
Chain of human C1q (Quidel, San Diego, Calif.) (human) (P02747 29-245 limits assumed, chain 3 of 3, further chain): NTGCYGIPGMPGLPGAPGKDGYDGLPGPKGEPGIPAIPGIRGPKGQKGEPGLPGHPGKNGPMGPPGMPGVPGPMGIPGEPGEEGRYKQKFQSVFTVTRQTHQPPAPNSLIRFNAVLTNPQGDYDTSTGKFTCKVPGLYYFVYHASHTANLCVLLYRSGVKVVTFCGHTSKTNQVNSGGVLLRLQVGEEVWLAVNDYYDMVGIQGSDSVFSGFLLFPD

- CDC, fold better than wild type C2B8 [1]: > 2 fold
- fold better binding than wild type C2B8 [2]: > 3 fold
Substance: C2B8 double mutant K326A-E333A (antibody)

- EC50 [2]: 1.52 µg/mL
Substance: C2B8 mutant E333Q (antibody)

- EC50 [2]: 0.81 µg/mL
- fold increase in binding against wild type [2]: 2 fold
Substance: C2B8 mutant E333S (antibody)

- CDC, percentage of the wild type [1]: 108%
- EC50 as percentage of the wild type [3]: 102%
Substance: C2B8 mutant K320A (antibody)

- EC50 [2]: 1.08 µg/mL
- fold increase in binding against wild type [4]: > 2 fold
Substance: C2B8 mutant K326E (antibody)

- EC50 [2]: 1.3 µg/mL
Substance: C2B8 mutant K326V (antibody)

- EC50 [2]: 0.47 µg/mL
- fold increase in binding against wild type [2]: 5 fold
- fold increase in binding against wild type [4]: > 2 fold
Substance: C2B8 mutant K326W (antibody)

- EC50 as percentage of the wild type [3]: 112%
Substance: C2B8 mutant P329A (antibody)

Continued, substance first:

Substance: C2B8 double mutant K326M-E333S (antibody)
- CDC, fold better than wild type C2B8 [1]: > 2 fold
- fold better binding than wild type C2B8 [2]: > 3 fold

Substance: C2B8 mutant E318A (antibody)
- CDC, percentage of the wild type [1]: 108%
- EC50 as percentage of the wild type [3]: 89%
- percent decrease in binding against wild type C2B8 [2]: 30%

Substance: C2B8 mutant E333A (antibody)
- EC50 [2]: 0.98 µg/mL
- percent increase in binding against wild type [2]: 30%

Substance: C2B8 mutant E333D (antibody)
- EC50 [2]: 1.22 µg/mL

Substance: C2B8 mutant E333G (antibody)
- EC50 [2]: 1.14 µg/mL

Substance: C2B8 mutant E333V (antibody)
- EC50 [2]: 1.18 µg/mL

Substance: C2B8 mutant K326A (antibody)
- EC50 [2]: 1.03 µg/mL
- percent increase in binding against wild type [2]: 30%

Substance: C2B8 mutant K326D (antibody)
- EC50 [2]: 0.76 µg/mL
- fold increase in binding against wild type [4]: > 2 fold

Substance: C2B8 mutant K326G (antibody)
- EC50 [2]: 0.95 µg/mL

Substance: C2B8 mutant K326M (antibody)
- EC50 [2]: 0.67 µg/mL
- fold increase in binding against wild type [4]: > 2 fold

Substance: C2B8 mutant K334A (antibody)
- EC50 [2]: 1.07 µg/mL
- percent increase in binding against wild type [2]: > 30%

Substance: C2B8 mutant P331A (antibody)
- EC50 as percentage of the wild type [3]: 103%
- fold lower binding than wild type C2B8 [2]: 60 fold

Substance: C2B8 mutant with A327 in the human IgG1 constant region changed to glycine (antibody)
- percent increase in binding against wild type [2]: 50%
